Measurements: US20240376221A1

What was measured:
[1] = molecular target: recombinant human OX40 (Acro Biosystems, cat. no. OXO-H5224) (human) (UniProt P43489); test: BLI cross-block; competitor (immobilized 1st Ab): IgG1-CD134-IBI101
[2] = molecular target: human OX40 with mouse CRD1 (human with mouse CRD1) (UniProt P43489); test: flow cytometry, ExpiCHO-S cells with human OX40 carrying mouse CRD1
[3] = molecular target: recombinant human OX40 (Acro Biosystems, cat. no. OXO-H5224) (human) (UniProt P43489); test: BLI cross-block; competitor (immobilized 1st Ab): IgG1-CD134-INCAGN1949
[4] = molecular target: human OX40, cell surface-expressed (human) (UniProt P43489); test: flow cytometry, activated CD8+ T cells, donor 2
Chain of human OX40, cell surface-expressed (human) (P43489 29-277): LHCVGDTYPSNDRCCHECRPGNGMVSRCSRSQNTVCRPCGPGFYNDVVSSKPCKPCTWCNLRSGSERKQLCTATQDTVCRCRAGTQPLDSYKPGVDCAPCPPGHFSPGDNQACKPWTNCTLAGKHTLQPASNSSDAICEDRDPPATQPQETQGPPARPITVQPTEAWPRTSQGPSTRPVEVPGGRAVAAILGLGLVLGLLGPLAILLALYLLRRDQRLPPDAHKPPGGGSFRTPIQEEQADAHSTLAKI

[5] = molecular target: human OX40, cell surface-expressed (human) (UniProt P43489); test: flow cytometry, activated CD4+ T cells, donor 2
[6] = molecular target: recombinant human OX40 (Acro Biosystems, cat. no. OXO-H5224) (human) (UniProt P43489); test: BLI cross-block; competitor (immobilized 1st Ab): IgG1-CD134-49B4-RRE
[7] = molecular target: human OX40, cell surface-expressed (human) (UniProt P43489); test: flow cytometry, activated CD4+ T cells, mean of 3 donors
[8] = molecular target: human OX40, cell surface-expressed (human) (UniProt P43489); test: flow cytometry, HEK293F cells with human OX40
[9] = molecular target: recombinant human OX40 (Acro Biosystems, cat. no. OXO-H5224) (human) (UniProt P43489); test: BLI cross-block; competitor (immobilized 1st Ab): IgG1-CD134-h3C8
[10] = molecular target: human OX40, cell surface-expressed (human) (UniProt P43489); test: flow cytometry, activated CD4+ T cells, donor 1
[11] = molecular target: recombinant human OX40 (Acro Biosystems, cat. no. OXO-H5224) (human) (UniProt P43489); test: BLI cross-block; competitor (immobilized 1st Ab): IgG1-CD134-SF2
[12] = molecular target: recombinant human OX40 (Acro Biosystems, cat. no. OXO-H5224) (human) (UniProt P43489); test: BLI cross-block; competitor (immobilized 1st Ab): IgG1-CD134-11D4
[13] = molecular target: recombinant cynomolgus monkey OX40 (Acro Biosystems, cat. no. OXO-C5220) (cynomolgus monkey); test: BLI, Ab on AHC sensor, OX40 analyte
Chain of recombinant cynomolgus monkey OX40 (Acro Biosystems, cat. no. OXO-C5220) (cynomolgus monkey) (P43489 other isoform, or with tags, fused parts or gaps limits assumed): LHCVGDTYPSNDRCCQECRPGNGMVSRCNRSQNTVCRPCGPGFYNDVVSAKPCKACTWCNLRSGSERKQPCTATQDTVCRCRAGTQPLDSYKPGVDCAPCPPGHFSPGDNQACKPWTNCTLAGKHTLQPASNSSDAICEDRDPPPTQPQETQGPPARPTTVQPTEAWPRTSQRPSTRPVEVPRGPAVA

[14] = molecular target: recombinant human OX40 (Acro Biosystems, cat. no. OXO-H5224) (human) (UniProt P43489); test: BLI, Ab on AHC sensor, OX40 analyte
[15] = molecular target: human OX40 with mouse CRD2 (human with mouse CRD2) (UniProt P43489); test: flow cytometry, ExpiCHO-S cells with human OX40 carrying mouse CRD2
Chain of human OX40 with mouse CRD2 (human with mouse CRD2) (P43489 other isoform, or with tags, fused parts or gaps limits assumed): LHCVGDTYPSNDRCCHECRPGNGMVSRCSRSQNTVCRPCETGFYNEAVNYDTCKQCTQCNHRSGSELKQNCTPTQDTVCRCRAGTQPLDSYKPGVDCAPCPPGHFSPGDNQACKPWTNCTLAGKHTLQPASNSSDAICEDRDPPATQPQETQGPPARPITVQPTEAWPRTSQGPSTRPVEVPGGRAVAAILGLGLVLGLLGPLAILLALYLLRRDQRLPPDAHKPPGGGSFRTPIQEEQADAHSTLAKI

[16] = molecular target: human OX40, cell surface-expressed (human) (UniProt P43489); test: flow cytometry, activated CD8+ T cells, donor 1
[17] = molecular target: human OX40, cell surface-expressed (human) (UniProt P43489); test: flow cytometry, activated CD8+ T cells, donor 3
[18] = molecular target: recombinant human OX40 (Acro Biosystems, cat. no. OXO-H5224) (human) (UniProt P43489); test: BLI cross-block; competitor (immobilized 1st Ab): IgG1-CD134-MEDI0562
[19] = molecular target: recombinant human OX40 (Acro Biosystems, cat. no. OXO-H5224) (human) (UniProt P43489); test: BLI cross-block; competitor (immobilized 1st Ab): IgG1-CD134-Hu106
[20] = molecular target: recombinant human OX40 (Acro Biosystems, cat. no. OXO-H5224) (human) (UniProt P43489); test: BLI cross-block; competitor (immobilized 1st Ab): IgG1-CD134-ABBV368
[21] = molecular target: recombinant human OX40 (Acro Biosystems, cat. no. OXO-H5224) (human) (UniProt P43489); test: BLI cross-block; competitor (immobilized 1st Ab): IgG1-CD134-003
[22] = molecular target: human OX40, cell surface-expressed (human) (UniProt P43489); test: flow cytometry, activated CD8+ T cells, mean of 3 donors
[23] = molecular target: recombinant human OX40 (Acro Biosystems, cat. no. OXO-H5224) (human) (UniProt P43489); test: BLI cross-block; competitor (immobilized 1st Ab): IgG1-CD134-RG7888
[24] = molecular target: human OX40 with mouse CRD4 (human with mouse CRD4) (UniProt P43489); test: flow cytometry, ExpiCHO-S cells with human OX40 carrying mouse CRD4
Chain of human OX40 with mouse CRD4 (human with mouse CRD4) (P43489 other isoform, or with tags, fused parts or gaps limits assumed): as the sequence (P43489 29-277) above, with D109N, A122S, H125Q, L127R, Q128H, N132D, S134L, I137V counted along it

[25] = molecular target: human OX40, cell surface-expressed (human) (UniProt P43489); test: flow cytometry, activated CD4+ T cells, donor 3
[26] = molecular target: recombinant human OX40 (Acro Biosystems, cat. no. OXO-H5224) (human) (UniProt P43489); test: BLI cross-block; competitor (immobilized 1st Ab): IgG1-CD134-A4453
[27] = molecular target: recombinant human OX40 (Acro Biosystems, cat. no. OXO-H5224) (human) (UniProt P43489); test: BLI cross-block; competitor (immobilized 1st Ab): IgG1-CD134-GBR830
[28] = molecular target: human OX40, cell surface-expressed (human) (UniProt P43489); test: flow cytometry, ExpiCHO-S cells with human OX40
[29] = molecular target: cynomolgus monkey OX40, cell surface-expressed (cynomolgus monkey); test: flow cytometry, HEK293F cells with cynomolgus monkey OX40
Chain of cynomolgus monkey OX40, cell surface-expressed (cynomolgus monkey) (P43489 other isoform, or with tags, fused parts or gaps limits assumed): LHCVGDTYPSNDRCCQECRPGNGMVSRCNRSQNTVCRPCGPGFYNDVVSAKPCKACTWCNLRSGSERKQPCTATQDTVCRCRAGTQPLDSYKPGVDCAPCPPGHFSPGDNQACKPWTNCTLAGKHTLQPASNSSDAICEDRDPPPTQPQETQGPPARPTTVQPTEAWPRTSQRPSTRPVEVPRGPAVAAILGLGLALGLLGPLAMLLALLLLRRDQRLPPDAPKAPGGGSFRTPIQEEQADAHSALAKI

[30] = molecular target: recombinant human OX40 (Acro Biosystems, cat. no. OXO-H5224) (human) (UniProt P43489); test: BLI cross-block; competitor (immobilized 1st Ab): IgG1-CD134-003-HC6LC2-RR
[31] = molecular target: recombinant human OX40 (Acro Biosystems, cat. no. OXO-H5224) (human) (UniProt P43489); test: BLI cross-block; competitor (immobilized 1st Ab): IgG1-CD134-012
[32] = molecular target: recombinant human OX40 (Acro Biosystems, cat. no. OXO-H5224) (human) (UniProt P43489); test: BLI cross-block; competitor (immobilized 1st Ab): IgG1-CD134-007
[33] = molecular target: human OX40 with mouse CRD3 (human with mouse CRD3) (UniProt P43489); test: flow cytometry, ExpiCHO-S cells with human OX40 carrying mouse CRD3
Chain of human OX40 with mouse CRD3 (human with mouse CRD3) (P43489 other isoform, or with tags, fused parts or gaps limits assumed): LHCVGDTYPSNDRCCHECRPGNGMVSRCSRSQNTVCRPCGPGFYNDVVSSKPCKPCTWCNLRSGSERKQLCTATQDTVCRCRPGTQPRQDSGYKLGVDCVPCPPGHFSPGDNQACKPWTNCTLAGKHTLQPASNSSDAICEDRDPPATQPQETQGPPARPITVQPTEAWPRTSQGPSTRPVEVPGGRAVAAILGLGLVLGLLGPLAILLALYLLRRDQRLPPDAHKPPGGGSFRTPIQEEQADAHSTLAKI

Chain of human OX40 with mouse CRD1 (human with mouse CRD1) (P43489 other isoform, or with tags, fused parts or gaps limits assumed): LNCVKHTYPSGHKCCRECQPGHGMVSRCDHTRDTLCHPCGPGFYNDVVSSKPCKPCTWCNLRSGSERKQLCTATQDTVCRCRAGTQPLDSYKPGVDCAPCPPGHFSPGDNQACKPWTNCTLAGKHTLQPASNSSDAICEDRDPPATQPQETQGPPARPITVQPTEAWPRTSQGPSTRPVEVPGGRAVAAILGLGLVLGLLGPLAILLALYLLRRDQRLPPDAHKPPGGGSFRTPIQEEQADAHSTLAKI
Chain of recombinant human OX40 (Acro Biosystems, cat. no. OXO-H5224) (human) (P43489 29-216 limits assumed): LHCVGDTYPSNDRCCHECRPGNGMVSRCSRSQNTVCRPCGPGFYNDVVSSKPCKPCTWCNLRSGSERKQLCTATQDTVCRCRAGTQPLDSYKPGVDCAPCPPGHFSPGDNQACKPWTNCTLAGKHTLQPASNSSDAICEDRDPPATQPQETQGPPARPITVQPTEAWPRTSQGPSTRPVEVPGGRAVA

| Binder | corrected association response [1] [nm] | EC50 (read off the curve) [2] [mg/L] | corrected association response [3] [nm] | corrected association response [6] [nm] | EC50 (read off the curve) [8] [mg/L] | corrected association response [9] [nm] | corrected association response [11] [nm] | corrected association response [12] [nm] | Kd [14] [µM] | koff [14] [s⁻¹] | kon [14] [M⁻¹ s⁻¹] | corrected association response [18] [nm] | corrected association response [19] [nm] | corrected association response [20] [nm] | corrected association response [21] [nm] | corrected association response [23] [nm] | EC50 (read off the curve) [24] [mg/L] | corrected association response [26] [nm] | corrected association response [27] [nm] | EC50 (read off the curve) [28] [mg/L] | further results |
| --- | --- | --- | --- | --- | --- | --- | --- | --- | --- | --- | --- | --- | --- | --- | --- | --- | --- | --- | --- | --- | --- |
| IgG1-CD134-ABBV368 (antibody, INN chains, looked up, V domains shown, IgG1) VH: EVQLVESGGGLVQPGGSLRLSCAASGFTFSRYGMSWVRQAPGKGLELVATINSNGGRTYYPDSVKGRFTISRDNAKNSLYLQMNSLRAEDTAVYYCAREGITTAYAMDYWGQGTTVTVSS VL: DIVMTQSPDSLAVSLGERATINCKASQSVDYDGDSYMHWYQQKPGQPPKLLIYAASILESGVPDRFSGSGSGTDFTLTISSLQAEDVAVYYCQQSNEDPRTFGGGTKVEIK | 0.01 | 0.005 | 0.01 | 0 | 0.05 | -0.03 | 0.04 | 0.13 | 0.032 | 0.017 | 510000 | -0.01 | 0 | -0.04 | 1.27 | 0.02 | 0.005 | 0.29 | 0.01 | 0.005 | Kd [13]: 0.082 µM; koff [13]: 0.019 s⁻¹; kon [13]: 230000 M⁻¹ s⁻¹; EC50 (read off the curve) [29]: 0.05 mg/L; corrected association response [30]: 1.68 nm; corrected association response [31]: 0.87 nm; corrected association response [32]: 0 nm |
| IgG1-CD134-GBR830 (antibody, INN chains, looked up, V domains shown, IgG1) VH: QVTLKESGPALVKPTQTLTLTCSFSGFSLSTSGMGVGWIRQPPGKALEWIAHIWWDDDKYYNTALKTRLTISKDTSKNQVVLTMTNMDPVDTATYYCARIDWDGFAYWGQGTLVTVSS VL: EIVLTQSPATLSLSPGERATLSCRASSSVSYMHWYQQKPGQAPRPWIYATSNRATGIPARFSGSGSGTDYTLTISSLEPEDFAVYYCQQWSSNPWTFGQGTKVEIK | 0.02 | 0.06 | 0.01 | 0 | 0.06 | -0.02 | 0.19 | 0.13 | 0.067 | 0.0077 | 120000 | 0.33 | 0.02 | -0.01 | 0.97 | 0.61 | 0.06 | 0.28 | 0.01 | 0.05 | EC50 (read off the curve) [33]: 0.06 mg/L; corrected association response [30]: 1.08 nm; corrected association response [31]: 0.84 nm; corrected association response [32]: 0.07 nm |

The next binders have a lower Kd [14] than those just listed; values first:

| corrected association response [1] [nm] | EC50 (read off the curve) [2] [mg/L] | corrected association response [3] [nm] | corrected association response [6] [nm] | EC50 (read off the curve) [8] [mg/L] | corrected association response [9] [nm] | corrected association response [11] [nm] | corrected association response [12] [nm] | Kd [14] [µM] | koff [14] [s⁻¹] | kon [14] [M⁻¹ s⁻¹] | corrected association response [18] [nm] | corrected association response [19] [nm] | corrected association response [20] [nm] | corrected association response [21] [nm] | corrected association response [23] [nm] | EC50 (read off the curve) [24] [mg/L] | corrected association response [26] [nm] | corrected association response [27] [nm] | EC50 (read off the curve) [28] [mg/L] | Binder | further results |
| --- | --- | --- | --- | --- | --- | --- | --- | --- | --- | --- | --- | --- | --- | --- | --- | --- | --- | --- | --- | --- | --- |
| 0.23 | 0.02 | 0.02 | 0.02 | 0.05 | 0.41 | 0.01 | 0.11 | 0.00023 | 8.4e-05 | 360000 | 0.02 | 0.1 | 0.01 | 0.66 | 0.02 | 0.01 | 0.47 | 0.26 | 0.007 | IgG1-CD134-RG7888 (antibody, INN chains, looked up, V domains shown, IgG1) VH: EVQLVQSGAEVKKPGASVKVSCKASGYTFTDSYMSWVRQAPGQGLEWIGDMYPDNGDSSYNQKFRERVTITRDTSTSTAYLELSSLRSEDTAVYYCVLAPRWYFSVWGQGTLVTVSS VL: DIQMTQSPSSLSASVGDRVTITCRASQDISNYLNWYQQKPGKAPKLLIYYTSRLRSGVPSRFSGSGSGTDFTLTISSLQPEDFATYYCQQGHTLPPTFGQGTKVEIK | EC50 [4]: 0.0332 mg/L; EC50 [5]: 0.0292 mg/L; EC50 [7]: 0.0354 mg/L; EC50 [10]: 0.0453 mg/L; Kd [13]: 0.00061 µM; koff [13]: 0.00014 s⁻¹; kon [13]: 240000 M⁻¹ s⁻¹; EC50 (read off the curve) [15]: 0.01 mg/L; EC50 [16]: 0.0627 mg/L; EC50 [17]: 0.0393 mg/L; EC50 [22]: 0.0451 mg/L; EC50 [25]: 0.0316 mg/L; EC50 (read off the curve) [29]: 0.05 mg/L; corrected association response [30]: 1.38 nm; corrected association response [31]: 0.54 nm; corrected association response [32]: 0.47 nm |
| 0.28 | 0.07 | 0 | 0.15 | 0.06 | 0.54 | 0.01 | 0.14 | 0.015 | 0.0022 | 150000 | 0 | 0.69 | -0.02 | 1.39 | 0 | 0.06 | 0.41 | 0.32 | 0.07 | IgG1-CD134-MEDI0562 (antibody, INN chains, looked up, V domains shown, IgG1) VH: QVQLQESGPGLVKPSQTLSLTCAVYGGSFSSGYWNWIRKHPGKGLEYIGYISYNGITYHNPSLKSRITINRDTSKNQYSLQLNSVTPEDTAVYYCARYKYDYDGGHAMDYWGQGTLVTVSS VL: DIQMTQSPSSLSASVGDRVTITCRASQDISNYLNWYQQKPGKAPKLLIYYTSKLHSGVPSRFSGSGSGTDYTLTISSLQPEDFATYYCQQGSALPWTFGQGTKVEIK | Kd [13]: 0.017 µM; koff [13]: 0.0018 s⁻¹; kon [13]: 110000 M⁻¹ s⁻¹; EC50 (read off the curve) [15]: 0.06 mg/L; EC50 (read off the curve) [29]: 0.1 mg/L; corrected association response [30]: 1.73 nm; corrected association response [31]: 0.82 nm; corrected association response [32]: 1.14 nm |
